Measured values as given in article PMC6997208, “Conversion of walnut tyrosinase into a catechol oxidase by site directed mutagenesis” (Scientific Reports, 2020).
Numbering of substitutions follows the chain as printed. Names may count otherwise.

B1: jrPPO1-wt (Juglans regia; V207I) (protein)
chain: DPVSAPELTLCSEADLPAGALPVNCCPPTSKKIKDFVLPSQNTPLRVRPAAHLVDNDYIAKYNKGIELMKSLPADDPRSFTQQANVHCAYCDGAYTQVGFPDLSLQIHECWLFFPFHRYYVYFFEKILGKLIGDPTFALPFWNWDSPPGMQLPSLYAVSNSAIYDPLRNANHQPPTIIDLDYGETSESTTTTDQVPSNLKIMYRQMVSGAKNPTLFFGSPYRAGDEPDPGAGTIESTPHNNIHLWTGDDTQPNIENMGNFYSAGRDPIFFAHHSNVDRMWTIWKTLGGKRKDITDPDWLNSSFFFYDENADPVRVKVKDCVDNTKLRYVYQDVEIPWLKTKPTPRKSRVKKVAKAFPAGHGGVAQAAETSSVKFPIVLDKVISTVVARPKKSRSKKEKDDEEEVLVIEGIEVERDIPVKFDVFINDEDDAPTGPGINTEFAGSFVSVPQQKQTKKKKTYLRIGISDLLEDLGAEDDDSVVVTLVPRFGKGKAIIGGIKIVLIG
notes: latent pro-enzyme (active domain + C-terminal domain) without transit peptide; E. coli BL21(DE3), pGEX-6P-1, N-terminal GST tag cut with HRV-3C protease; cloned from walnut leaf cDNA, Val107Ile versus FJ769240.1
B2: jrPPO1-wt (Juglans regia; F360G/V307I) (protein)
chain: B1 chain with I107V, V207I, F260G
notes: as for B1
B3: jrPPO1-wt (Juglans regia; N340K/V307I) (protein)
chain: B1 chain with I107V, V207I, N240K
notes: as for B1
B4: jrPPO1-wt (Juglans regia; L344R/V307I) (protein)
chain: B1 chain with I107V, V207I, L244R
notes: as for B1
B5: jrPPO1-wt (Juglans regia; L344R/N340K/V307I) (protein)
chain: B1 chain with I107V, V207I, N240K, L244R
notes: as for B1
B6: jrPPO1-wt (Juglans regia; L344R/N340T/V307I) (protein)
chain: B1 chain with I107V, V207I, N240T, L244R
notes: as for B1

These proteins were tested on NCCc1ccc(O)c(O)c1 (assay: spectrophotometric quinone formation). Conditions: 50 mM sodium phosphate pH 6.0, 2 mM SDS as activator, 25 °C, diphenolase.
Assay type: biochemical, Juglans regia
Source text: (§1) spectrophotometric quinone formation on jrPPO1-wt

Protein	Km [mM]	kcat [s⁻¹]	kcat/Km [M⁻¹ s⁻¹]
B1	0.75 ± 0.13	92.5 ± 7.8	123000 ± 24000
B2	1.2 ± 0.4	7.36 ± 0.98	5900 ± 2200
B3	19.8 ± 4.7	2.51 ± 0.4	132 ± 97
B4	2.36 ± 0.41	24.9 ± 1.6	10600 ± 2000
B5	6.8 ± 1.3	0.029 ± 0.002	4.28 ± 0.85
B6	6.6 ± 1.5	0.789 ± 0.079	122 ± 26

What follows are proteins tested on NCCc1ccc(O)cc1 (assay: spectrophotometric quinone formation). Conditions: 50 mM sodium phosphate pH 6.0, 2 mM SDS as activator, 25 °C, monophenolase.
Assay type: biochemical, Juglans regia
Source text: as §1

Protein	Km [mM]	kcat [s⁻¹]	kcat/Km [M⁻¹ s⁻¹]
B1	0.451 ± 0.084	24.7 ± 1.5	55000 ± 11000
B2	3.05 ± 0.72	0.323 ± 0.025	103 ± 26
B3	8.2 ± 1.4	0.0542 ± 0.0034	6.6 ± 1.2
B4	2.68 ± 0.53	1.62 ± 0.09	600 ± 120

Each protein was assayed on N[C@@H](Cc1ccc(O)c(O)c1)C(=O)O (assay: spectrophotometric quinone formation). Conditions: 50 mM sodium phosphate pH 6.0, 2 mM SDS as activator, 25 °C, diphenolase.
Assay type: biochemical, Juglans regia
Source text: as §1

Protein	Km [mM]	kcat [s⁻¹]	kcat/Km [M⁻¹ s⁻¹]
B1	6.2 ± 1.0	111 ± 8.8	18100 ± 3400
B5	16.5 ± 4.8	0.104 ± 0.019	6 ± 2.1
B6	13.1 ± 3.3	0.18 ± 0.027	12.9 ± 4

What follows are proteins tested on N[C@@H](Cc1ccc(O)cc1)C(=O)O (assay: spectrophotometric quinone formation). Conditions: 50 mM sodium phosphate pH 6.0, 2 mM SDS as activator, 25 °C, monophenolase.
Assay type: biochemical, Juglans regia
Source text: as §1

Protein	Km [mM]	kcat [s⁻¹]	kcat/Km [M⁻¹ s⁻¹]
B1	1.42 ± 0.37	6 ± 1.1	4300 ± 1400
